Common to all, as to experiment: ELISA, gp120 on plate
In general terms: An ELISA detects its analyte on a solid surface through an enzyme-linked reagent.

The target in experiment [1] is CH505 Env w020.11 gp120 (HIV-1).
The target in experiment [2] is CH505 Env w053.31 gp120 (HIV-1).
The target in experiment [3] is CH505 Env w030.17 gp120 (HIV-1).
Experiment [4] concerns the target CH505 Env w030.13 gp120 (HIV-1).
For experiment [5], the target named is CH505 Env w053.22 gp120 (HIV-1).
The target in experiment [6] is CH505 Env w136.B23 gp120 (HIV-1).
The target in experiment [7] is CH505 Env w020.25 gp120 (HIV-1).
For experiment [8], the target named is CH505 Env w100.B4 gp120 (HIV-1).
The target of experiment [9] is CH505 Env w053.29 gp120 (HIV-1).
For experiment [10], the target named is CH505 Env w020.15 gp120 (HIV-1).
The target of experiment [11] is CH505 Env w136.B2 gp120 (HIV-1).
Experiment [12] concerns the target CH505 Env w078.33 gp120 (HIV-1).
For experiment [13], the target named is CH505 Env w078.6 gp120 (HIV-1).
The target of experiment [14] is CH505 transmitted/founder (TF) Env gp120 (HIV-1).
The target in experiment [15] is CH505 Env w078.17 gp120 (HIV-1).
In experiment [16] the target is CH505 Env w053.15 gp120 (HIV-1).
In experiment [17] the target is CH505 Env w136.B5 gp120 (HIV-1).
Experiment [18] has as its target CH505 Env w100.A13 gp120 (HIV-1).
Experiment [19] addresses CH505 Env w078.9 gp120 (HIV-1).
Experiment [20] has as its target CH505 Env w100.B2 gp120 (HIV-1).
Experiment [21] has as its target CH505 Env w078.15 gp120 (HIV-1).
Experiment [22] has as its target CH505 Env w004.54 gp120 (HIV-1).
The target in experiment [23] is CH505 Env w136.B10 gp120 (HIV-1).
The target in experiment [24] is CH505 Env w160.T4 gp120 (HIV-1).
Experiment [25] deals with CH505 Env w030.36 gp120 (HIV-1).
Experiment [26] has as its target CH505 Env w030.21 gp120 (HIV-1).
Experiment [27] has as its target CH505 Env w030.20 gp120 (HIV-1).

With “CH103 CD4 binding site broadly neutralizing antibody”, the log-transformed AUC in [1] was 9.6 log AUC; in experiment [2], 13.6 log AUC; in experiment [3], 9.9 log AUC; in experiment [4], 12.9 log AUC; in [5], 11.6 log AUC; in [6], 11.8 log AUC. Moreover, the log-transformed AUC was 10.3 log AUC in experiment [7]; 9.7 log AUC in [8]; 10.2 log AUC in [9]; 11.8 log AUC in experiment [10]; 10.8 log AUC in experiment [11]; 11.1 log AUC in experiment [12]. Further, the log-transformed AUC in experiment [13] is 9.9 log AUC; in [14], 12.6 log AUC; in [15], 11.3 log AUC; in experiment [16], 11.2 log AUC; in experiment [17], 4.3 log AUC; in [18], 12.9 log AUC. Besides, the log-transformed AUC was 8.9 log AUC in experiment [19]; 3.2 log AUC in experiment [20]; 10.7 log AUC in experiment [21]; 9.2 log AUC in experiment [22]; 11.5 log AUC in experiment [23]; 9 log AUC in [24]. In addition, the log-transformed AUC stood at 9.1 log AUC in experiment [25], 12.2 log AUC in experiment [26] and 9.5 log AUC in experiment [27].

With “CH103 lineage intermediate ancestor IA1 (antibody)”, the log-transformed AUC was determined as 1.8 log AUC in experiment [1]; 13.4 log AUC in [2]; 5.8 log AUC in [3]; 10.5 log AUC in experiment [4]; 8.8 log AUC in experiment [5]; 14.4 log AUC in [6]. The log-transformed AUC in experiment [7] worked out at 8.6 log AUC; in experiment [8], 13.7 log AUC; in experiment [9], 8.8 log AUC; in experiment [10], 9.9 log AUC; in experiment [11], 13.2 log AUC; in experiment [12], 8.2 log AUC. Moreover, the log-transformed AUC in experiment [13] was 3 log AUC; in experiment [14] it was 10.4 log AUC; in experiment [15], 9 log AUC; in [16], 9.2 log AUC; in experiment [17], 9.5 log AUC; in [18], 12.6 log AUC. For the same substance, the log-transformed AUC in [19] was 6.3 log AUC; in experiment [20], 7.3 log AUC; in experiment [21], 10.9 log AUC; in experiment [22] it was 6.2 log AUC; in [23], 9.2 log AUC; in [24] it was 13.6 log AUC. Further, the log-transformed AUC in experiment [25] turned out to be 6.7 log AUC; in [26], 11.8 log AUC; in experiment [27] it was 5.7 log AUC.

As for “CH103 lineage intermediate ancestor IA2 (antibody)”, the log-transformed AUC stood at 2.6 log AUC in experiment [1]; 13.3 log AUC in experiment [2]; 7 log AUC in [3]; 11.4 log AUC in experiment [4]; 9.3 log AUC in experiment [5]; 14.3 log AUC in [6]. Further, the log-transformed AUC in [7] amounted to 9 log AUC; in [8], 13.4 log AUC; in experiment [9], 9.2 log AUC; in experiment [10], 10.5 log AUC; in experiment [11], 13.1 log AUC; in [12], 9 log AUC. In addition, the log-transformed AUC in [13] is 4.6 log AUC; in experiment [14], 10.8 log AUC; in [15] it was 9.9 log AUC; in experiment [16] it was 9.5 log AUC; in experiment [17], 9.9 log AUC; in experiment [18], 12.5 log AUC. Besides, the log-transformed AUC is 7.2 log AUC in [19]; 7.5 log AUC in [20]; 11.5 log AUC in experiment [21]; 6.8 log AUC in [22]; 9.7 log AUC in experiment [23]; 13.4 log AUC in experiment [24]. For the same substance, the log-transformed AUC in experiment [25] amounted to 7.3 log AUC; in [26], 11.5 log AUC; in experiment [27] it was 6.3 log AUC.

Turning to “CH103 lineage intermediate ancestor IA3 (antibody)”, the log-transformed AUC in experiment [1] is 0.8 log AUC; in [4], 9 log AUC; in experiment [5] it was 1.1 log AUC; in experiment [7] it was 8.6 log AUC; in experiment [10] it was 10.2 log AUC; in experiment [14], 11 log AUC. In addition, the log-transformed AUC stood at 3 log AUC in experiment [21] and 5.1 log AUC in experiment [22].

“CH103 lineage intermediate ancestor IA4 (antibody)”: the log-transformed AUC turned out to be 0.8 log AUC in experiment [1]; 7.4 log AUC in experiment [4]; 0.2 log AUC in [5]; 7.3 log AUC in experiment [7]; 9.1 log AUC in experiment [10]; 10.1 log AUC in [14]. For the same substance, the log-transformed AUC in experiment [21] came out at 1.3 log AUC; in experiment [22], 2.8 log AUC.

On to “CH103 lineage intermediate ancestor IA6 (antibody)”, for which the log-transformed AUC in experiment [1] was determined as 0.8 log AUC; in [4], 6.5 log AUC; in [7] it was 6 log AUC; in experiment [10] it was 7.8 log AUC; in experiment [14], 9.1 log AUC; in experiment [21] it was 1 log AUC. This substance came in with a log-transformed AUC in experiment [22] of 2.9 log AUC.

With “CH103 lineage intermediate ancestor IA7 (antibody)”, the log-transformed AUC was determined as 0.1 log AUC in experiment [1]; 4.7 log AUC in [4]; 6.4 log AUC in [7]; 8.2 log AUC in experiment [10]; 9.2 log AUC in [14]; 0.7 log AUC in experiment [21]. The substance further returned a log-transformed AUC in [22] of 2.3 log AUC.

As to “CH103 lineage intermediate ancestor IA8 (antibody)”, the log-transformed AUC turned out to be 0.9 log AUC in experiment [1]; 2 log AUC in [4]; 2.4 log AUC in experiment [7]; 4.2 log AUC in experiment [10]; 5.5 log AUC in experiment [14]; 0.5 log AUC in experiment [22].

Regarding “CH103 lineage unmutated common ancestor (UCA) (antibody)”, the log-transformed AUC in experiment [4] is 0.3 log AUC; in experiment [7], 0.8 log AUC; in experiment [10] it was 1.6 log AUC; in experiment [14] it was 3.5 log AUC.

Turning to “CH104 (CH103 lineage monoclonal antibody)”, the log-transformed AUC in experiment [1] turned out to be 2.2 log AUC; in experiment [2], 13.7 log AUC; in experiment [3] it was 7 log AUC; in experiment [4], 11.3 log AUC; in experiment [5] it was 9.9 log AUC; in [6] it was 14.2 log AUC. Also, the log-transformed AUC in experiment [7] was 8.3 log AUC; in [8], 13.1 log AUC; in experiment [9], 9.8 log AUC; in experiment [10] it was 10.5 log AUC; in experiment [11], 13.2 log AUC; in experiment [12] it was 9 log AUC. The log-transformed AUC in [13] stood at 4.5 log AUC; in experiment [14], 10.4 log AUC; in experiment [15], 10 log AUC; in [16], 10.4 log AUC; in experiment [17], 10.6 log AUC; in [18] it was 12.9 log AUC. In addition, the log-transformed AUC in experiment [19] is 6.9 log AUC; in experiment [20], 6.1 log AUC; in experiment [21], 10.8 log AUC; in experiment [22], 8.1 log AUC; in [23] it was 8.9 log AUC; in experiment [24], 12.8 log AUC. The log-transformed AUC was determined as 7.8 log AUC in experiment [25], 11.3 log AUC in [26] and 7.5 log AUC in experiment [27].

(Values after patent US20170326229A1.)
